Test results published in US20160264649A1.

Tests used:
Assay in all cases: cell-based or functional assay
[1] = target: HIV-1 92BR020 Env (HIV-1)
[2] = target: HIV-1 92TH021 Env (HIV-1)
[3] = target: HIV-1 93IN905 Env (HIV-1)
[4] = target: HIV-1 93UG077 Env (HIV-1)
[5] = target: HIV-1 97ZA012 Env on pseudovirus (HIV-1)
[6] = target: HIV-1 98CN009 Env on pseudovirus (HIV-1)
[7] = target: HIV-1 98IN022 Env on pseudovirus (HIV-1)
[8] = target: HIV-1 APV_17 Env on pseudovirus (HIV-1)
[9] = target: HIV-1 APV_6 Env on pseudovirus (HIV-1)
[10] = target: HIV-1 CAAN.A2 (Acute) Env on pseudovirus (HIV-1)
[11] = target: HIV-1 IAVI-C22 Env (HIV-1)
[12] = target: HIV-1 JRCSF Env (HIV-1) (UniProt P20871)
[13] = target: HIV-1 JRCSF Env on pseudovirus (HIV-1) (UniProt P20871)
[14] = target: HIV-1 LAVIC_18 Env on pseudovirus (HIV-1)
[15] = target: HIV-1 MGRM-AE-003 Env (HIV-1)
[16] = target: HIV-1 MGRM-AE-005 Env (HIV-1)
[17] = target: HIV-1 MGRM-AE-007 Env (HIV-1)
[18] = target: HIV-1 MGRM-AG-002 Env (HIV-1)
[19] = target: HIV-1 MGRM-AG-003 Env (HIV-1)
[20] = target: HIV-1 MGRM-AG-008 Env (HIV-1)
[21] = target: HIV-1 MGRM-AG-011 Env (HIV-1)
[22] = target: HIV-1 MGRM-AG-012 Env (HIV-1)
[23] = target: HIV-1 MGRM-C-002 Env on pseudovirus (HIV-1)
[24] = target: HIV-1 MGRM-C-022 Env on pseudovirus (HIV-1)
[25] = target: HIV-1 MGRM-C-024 Env on pseudovirus (HIV-1)
[26] = target: HIV-1 MGRM-Chronic-B-001 Env on pseudovirus (HIV-1)
[27] = target: HIV-1 MGRM-Chronic-B-010 Env on pseudovirus (HIV-1)
[28] = target: HIV-1 MGRM-Chronic-B-020 Env on pseudovirus (HIV-1)
[29] = target: HIV-1 MGRM-D-001 Env (HIV-1)
[30] = target: HIV-1 MGRM-D-005 Env (HIV-1)
[31] = target: HIV-1 MGRM-D-012 Env (HIV-1)
[32] = target: HIV-1 MGRM-D-016 Env (HIV-1)
[33] = target: HIV-1 MGRM-D-024 Env (HIV-1)
[34] = target: HIV-1 MGRM-D-029 Env (HIV-1)
[35] = target: HIV-1 MGRM-F1-008 Env (HIV-1)
[36] = target: HIV-1 MGRM-F1-012 Env (HIV-1)
[37] = target: HIV-1 MGRM-F1-014 Env (HIV-1)
[38] = target: HIV-1 MGRM-F1-016 Env (HIV-1)
[39] = target: HIV-1 MGRM-F1-018 Env (HIV-1)
[40] = target: HIV-1 MGRM-F1-020 Env (HIV-1)
[41] = target: HIV-1 MGRM-F1-021 Env (HIV-1)
[42] = target: HIV-1 MGRM-G-001 Env (HIV-1)
[43] = target: HIV-1 MGRM-G-013 Env (HIV-1)
[44] = target: HIV-1 MGRM-G-015 Env (HIV-1)
[45] = target: HIV-1 MGRM-G-016 Env (HIV-1)
[46] = target: HIV-1 MGRM-G-019 Env (HIV-1)
[47] = target: HIV-1 MGRM-G-024 Env (HIV-1)
[48] = target: HIV-1 MGRM-G-027 Env (HIV-1)
[49] = target: HIV-1 QH0692.42 (Acute) Env on pseudovirus (HIV-1)
[50] = target: HIV-1 SF162 Env on pseudovirus (HIV-1) (UniProt P19550)
[51] = target: HIV-1 TRO.11 (Acute) Env on pseudovirus (HIV-1)

Chain of 1443_C16 (PG16) (TCN-116) (antibody) (VH): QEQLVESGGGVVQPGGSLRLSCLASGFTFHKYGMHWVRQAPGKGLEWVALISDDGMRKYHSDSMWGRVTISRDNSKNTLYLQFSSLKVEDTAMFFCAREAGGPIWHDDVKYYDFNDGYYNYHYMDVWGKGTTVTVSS
Chain of 1443_C16 (PG16) (TCN-116) (antibody) (VL): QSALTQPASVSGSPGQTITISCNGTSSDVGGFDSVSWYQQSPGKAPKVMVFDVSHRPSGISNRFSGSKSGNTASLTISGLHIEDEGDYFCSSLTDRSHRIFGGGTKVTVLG

With 1443_C16 (PG16) (TCN-116) (antibody) the neutralization IC50 [1] was > 50 µg/mL, the neutralization IC90 [1] was > 50 µg/mL and the IC50 (µg/ml), pseudovirus neutralization [2] was 0.1 µg/mL. For the same substance, the neutralization IC50 [2] was 0.127 µg/mL, the neutralization IC90 [2] was 23.4 µg/mL and the neutralization IC50 [3] was 0.102 µg/mL. For the same substance, the neutralization IC90 [3] was > 50 µg/mL, the neutralization IC50 [4] was > 50 µg/mL and the neutralization IC90 [4] was > 50 µg/mL. It also gave an IC50 [5] of 2.55 µg/mL, an IC50 [6] of 5.76 µg/mL and an IC50 [7] of 3 ng/mL. For the same substance, the IC50 [8] was 24.8 µg/mL, the IC50 [9] was 0.29 µg/mL and the IC50 [10] was 8.83 µg/mL. For the same substance, the neutralization IC50 [11] was 0.0687 µg/mL, the neutralization IC90 [11] was > 50 µg/mL and the neutralization IC50 [12] was < 2.5 ng/mL. The neutralization IC90 [12] was 0.013 µg/mL, the IC50 [13] was 1 ng/mL and the IC50 [14] was 0.02 µg/mL. For the same substance, the IC50 (µg/ml), pseudovirus neutralization [15] was 0.03 µg/mL, the IC50 (µg/ml), pseudovirus neutralization [16] was 0.02 µg/mL and the IC50 (µg/ml), pseudovirus neutralization [17] was 0.04 µg/mL. For the same substance, the IC50 (µg/ml), pseudovirus neutralization [18] was 0.03 µg/mL, the IC50 (µg/ml), pseudovirus neutralization [19] was > 50 µg/mL and the IC50 (µg/ml), pseudovirus neutralization [20] was 0.002 µg/mL. For the same substance, the IC50 (µg/ml), pseudovirus neutralization [21] was 0.002 µg/mL, the IC50 (µg/ml), pseudovirus neutralization [22] was 25.1 µg/mL and the IC50 [23] was 28.3 µg/mL. For the same substance, the IC50 [24] was 0.25 µg/mL, the IC50 [25] was 0.04 µg/mL and the IC50 [26] was > 50 µg/mL. For the same substance, the IC50 [27] was 0.01 µg/mL, the IC50 [28] was > 50 µg/mL and the IC50 (µg/ml), pseudovirus neutralization [29] was > 50 µg/mL. For the same substance, the IC50 (µg/ml), pseudovirus neutralization [30] was 19.7 µg/mL, the IC50 (µg/ml), pseudovirus neutralization [31] was 0.35 µg/mL and the IC50 (µg/ml), pseudovirus neutralization [32] was 0.02 µg/mL. The IC50 (µg/ml), pseudovirus neutralization [33] was 0.02 µg/mL, the IC50 (µg/ml), pseudovirus neutralization [34] was > 50 µg/mL and the IC50 (pseudovirus neutralization) [35] was > 50 µg/mL. The IC50 (pseudovirus neutralization) [36] was 3 ng/mL, the IC50 (pseudovirus neutralization) [37] was 0.01 µg/mL and the IC50 (pseudovirus neutralization) [38] was 1.12 µg/mL. For the same substance, the IC50 (pseudovirus neutralization) [39] was 0.01 µg/mL, the IC50 (pseudovirus neutralization) [40] was 4.35 µg/mL and the IC50 (pseudovirus neutralization) [41] was > 50 µg/mL. For the same substance, the IC50 (µg/ml), pseudovirus neutralization [42] was 0.15 µg/mL, the IC50 (µg/ml), pseudovirus neutralization [43] was > 50 µg/mL and the IC50 (µg/ml), pseudovirus neutralization [44] was 5.33 µg/mL. It also gave an IC50 (µg/ml), pseudovirus neutralization [45] of 11.3 µg/mL, an IC50 (µg/ml), pseudovirus neutralization [46] of 1.21 µg/mL and an IC50 (µg/ml), pseudovirus neutralization [47] of 0.01 µg/mL. The IC50 (µg/ml), pseudovirus neutralization [48] was 0.01 µg/mL, the IC50 [49] was > 50 µg/mL and the IC50 [50] was > 50 µg/mL. It also gave an IC50 [51] of 0.22 µg/mL.
